# Data taken from patent US20110136811A1, “PROKINETICIN 1 RECEPTOR” (published 2011).
# B1: PK1 ligand preparation (recombinant human Prokineticin 1 after enterokinase removal of the N-terminal FLAG tag) (ligand)
# chain: AVITGACERDVQCGAGTCCAISLWLRGLRMCTPLGREGEECHPGSHKVPFFRKRKHHTCPCLPNLLCSRFPDGRYRCSMDLKNINF
# Biological target: rat PK1 receptor, endogenous in rat ileum (rat, UniProt Q8R416)
# Assay: cell-based or functional assay
binder,measurement,value
B1,EC50 of the early contractile response of isolated rat ileum,0.0878 µM
same,EC50 of the late contractile response of isolated rat ileum,0.0724 µM
